This data set is described as follows: protein stability index of a GFP-peptide fusion (yeast GPS) (PSI 1-4); higher = more stable; sorted into four equal gates, so the index is relative within each strain. An outline of the steps: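 Mid-log yeast cultures in leucine-free medium, carrying a pooled plasmid library, were sorted into four equal gates by their GFP/Cherry fluorescence ratio. Each plasmid expressed Cherry along with GFP fused upstream of a tiled 17-residue yeast protein peptide. Plasmids recovered from each gate were PCR-amplified and Illumina-sequenced, with reads assigned to strains by barcodes. The protein stability index was obtained by summing each gate's read frequency weighted by its gate number.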

± gives the uncertainty stated by the source.

As to QSALSQIIRLFYSKNRL [ISW2], the protein stability index was 2.62 ± 0.066 (doa10∆), 2.49 ± 0.059 (pdr5∆), 1.87 ± 0.095 (san1∆) and 2.61 ± 0.053 (ubr1∆).
QVSINSNKILVYESEME [YIL149C/MLP2]: the protein stability index (doa10∆) is 2.3 ± 0.11, the protein stability index (pdr5∆) worked out at 3 ± 0.16, the protein stability index (san1∆) stood at 1.71 ± 0.21 and the protein stability index (ubr1∆) was determined as 2.92 ± 0.16.
The sequence PFGVSTIFGGVDKNGAH [PRE10] gave a protein stability index (doa10∆) of 3.06 ± 0.076, a protein stability index (pdr5∆) of 2.98 ± 0.069, a protein stability index (san1∆) of 2.73 ± 0.12 and a protein stability index (ubr1∆) of 2.97 ± 0.049.
The like results for AVVVGTGNIKHEDLVNS [COR1] were, in that order, 3.05 ± 0.11, 2.79 ± 0.12, 2.93 ± 0.077 and 2.71 ± 0.11.
The like results for VLCLTRSSYMLELVNTP [YCG1] were, in that order, 1.58 ± 0.059, 2.03 ± 0.2, 1.77 ± 0.099 and 1.98 ± 0.087.
Taken in the same sequence, the figures for TPANTNNSTSNANTVFS [SWI1] were 2.5 ± 0.057, 2.75 ± 0.047, 2.66 ± 0.04 and 2.931 ± 0.028.
Consider TSSQKEPFFLVTKITDM [SRB8], for which the protein stability index runs as follows: (doa10∆) 2.36 ± 0.059; (pdr5∆) 2.72 ± 0.071; (san1∆) 2.52 ± 0.054; (ubr1∆) 2.62 ± 0.054.
The like results for EAKERYTDRDQDEVNKG [NNF1] were, in that order, 3.26 ± 0.15, 3.28 ± 0.13, 3.3 ± 0.22 and 3.74 ± 0.11.
Taken in the same sequence, the figures for PKEVDGLEVGPVVQVGI [IRR1] were 3.38 ± 0.11, 2.98 ± 0.088, 3.37 ± 0.18 and 3.23 ± 0.08.
Regarding GRGTLFVRGDSKIFRFQ [RPL24A], the protein stability index amounted to 1.58 ± 0.05 (doa10∆), 1.74 ± 0.076 (pdr5∆), 1.95 ± 0.087 (san1∆) and 2.21 ± 0.065 (ubr1∆).
The like results for ISIDSWPTTHKYPLGHF [DIS3] were, in that order, 2.38 ± 0.077, 2.74 ± 0.11, 3.04 ± 0.082 and 2.81 ± 0.072.
Taken in the same sequence, the figures for KKLLEVHDIFSKIFNES [CDC53] were 2.84 ± 0.072, 2.71 ± 0.059, 2.77 ± 0.057 and 2.66 ± 0.05.
As to FDDRGDVKVIMATNKIE [RPT2], the protein stability index is 3.12 ± 0.12 (doa10∆), 3.18 ± 0.15 (pdr5∆), 3.11 ± 0.083 (san1∆) and 3.27 ± 0.12 (ubr1∆).
The like results for YISNLLYGVTICYNKKT [REC8] were, in that order, 1.22 ± 0.036, 1.27 ± 0.048, 1.3 ± 0.077 and 1.21 ± 0.03.
Taken in the same sequence, the figures for KESAVISKQKSKLDYIF [SMC1] were 3.04 ± 0.18, 2.81 ± 0.11, 3.05 ± 0.11 and 2.98 ± 0.12.
Consider TVHEMEEELKKLRDHEP [SMC4], for which the protein stability index is, setting by setting: (doa10∆) 3.54 ± 0.27; (pdr5∆) 3.26 ± 0.22; (ubr1∆) 3.62 ± 0.2.
Regarding QFEVSDDEKNDKQARKQ [SNF2], the protein stability index (doa10∆) was determined as 3.38 ± 0.083, the protein stability index (pdr5∆) was 3.4 ± 0.12, the protein stability index (san1∆) turned out to be 3.06 ± 0.069 and the protein stability index (ubr1∆) came to 3.29 ± 0.077.
Taken in the same sequence, the figures for NKLGALKTNFETEWNLQ [RPB11] were 2.68 ± 0.064, 2.9 ± 0.077, 3.22 ± 0.12 and 2.95 ± 0.091.
Regarding LADKLENYEGKQDKTLQ [YIL149C/MLP2], the protein stability index is, setting by setting: (doa10∆) 3.15 ± 0.18; (pdr5∆) 3.22 ± 0.22; (san1∆) 2.92 ± 0.15; (ubr1∆) 3.17 ± 0.22.
Turning to YSKNNPNLLFSMCGFEV [PRP8], the protein stability index runs as follows: (doa10∆) 2.96 ± 0.093; (pdr5∆) 2.69 ± 0.093; (san1∆) 2.17 ± 0.076; (ubr1∆) 2.4 ± 0.092.
FSIFNYFKMFPASKHDK [RPC34] registered a protein stability index (doa10∆) of 3.28 ± 0.19, a protein stability index (pdr5∆) of 1.34 ± 0.12 and a protein stability index (ubr1∆) of 2.44 ± 0.2.
ITKLLEINLSKIFQTTP [YCS4]: the protein stability index is, setting by setting: (doa10∆) 2.58 ± 0.054; (pdr5∆) 2.23 ± 0.044; (san1∆) 2.43 ± 0.042; (ubr1∆) 2.6 ± 0.033.
The like results for DSHKRIPDMSKNVELGW [SNU114] were, in that order, 3.06 ± 0.17, 3.28 ± 0.11, 2.79 ± 0.13 and 3.41 ± 0.097.
As for PVSCIIQNDEEYDTPAL [PRP8], the protein stability index was 1.79 ± 0.1 (doa10∆), 2.73 ± 0.077 (pdr5∆), 1.92 ± 0.093 (san1∆) and 1.22 ± 0.086 (ubr1∆).
Regarding TQSGGVRPFGVSTLIAG [PRE6], the protein stability index (doa10∆) was determined as 1.5 ± 0.14, the protein stability index (pdr5∆) worked out at 1.72 ± 0.12, the protein stability index (san1∆) turned out to be 1.75 ± 0.17 and the protein stability index (ubr1∆) came out at 1.43 ± 0.081.
With TREDVSPHYNSQKQTLI [SSN3], the protein stability index is, setting by setting: (doa10∆) 2.16 ± 0.05; (pdr5∆) 2.71 ± 0.05; (san1∆) 2.15 ± 0.048; (ubr1∆) 2.81 ± 0.051.

For the origin of these results see the supplement of paper PMC9732359.
